Data from patent US20130236458A1 (AbbVie / Abbott, published 2013).
Positions count from the first letter of the chain named. Blank lines part the entries; values can stand above or below the binder they belong to.

Assays:
Recombinant Human IL-13 = Recombinant Human IL-13 (human, UniProt P35225 35-146, limits assumed); assay: cell-based or functional assay
Recombinant Human IL-17 = target: T1, Recombinant Human IL-17 (human, UniProt Q16552 20-155, limits assumed); assay: cell-based or functional assay
T1 sequence (looked up): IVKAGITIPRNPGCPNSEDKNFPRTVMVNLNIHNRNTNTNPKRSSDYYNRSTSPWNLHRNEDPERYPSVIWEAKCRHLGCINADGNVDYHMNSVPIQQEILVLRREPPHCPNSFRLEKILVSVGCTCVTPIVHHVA

Chain of Recombinant Human IL-13 (P35225 35-146 limits assumed): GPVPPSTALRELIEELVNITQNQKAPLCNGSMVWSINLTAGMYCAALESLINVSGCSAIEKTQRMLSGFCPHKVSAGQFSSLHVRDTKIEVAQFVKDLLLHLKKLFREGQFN

- N-Terminal VD IL13 Neutralization Assay IC50 (Recombinant Human IL-13): 0.106 nM
- C-Terminal VD IL17 Neutralization Assay IC50 (Recombinant Human IL-17): 0.116 nM
B1: DVD2176 (bispecific antibody)
VH: EVQLVQSGAEVKKPGASVKVSCKASGYTFTTYGVSWVRQAPGQGLEWMGEIYPGNYNTYYNEKFRGRVTMTTDTSTSTAYMELRSLRSDDTAVYYCARWRTSYFSDYGYFDYWGQGTTVTVSSASTKGPSVFPLAPEVQLVQSGAEVKKPGSSVKVSCKASGGSFGGYGIGWVRQAPGQGLEWMGGITPFFGFADYAQKFQGRVTITADESTTTAYMELSGLTSDDTAVYYCARDPNEFWNGYYSTHDFDSWGQGTTVTVSS
VL: DVVMTQSPLSLPVTLGQPASISCRSSQSLVHSHGNTYLHWYQQRPGQSPRLLIYTVSNRFSGVPDRFSGSGSGTDFTLKISRVEAEDVGVYYCSQSTHVPYTFGGGTKVEIKRTVAAPEIVLTQSPDFQSVTPKEKVTITCRASQDIGSELHWYQQKPDQPPKLLIKYASHSTSGVPSRFSGSGSGTDFTLTINGLEAEDAGTYYCHQTDSLPYTFGPGTKVDIKR

- N-Terminal VD IL13 Neutralization Assay IC50 (Recombinant Human IL-13): 0.088 nM
- C-Terminal VD IL17 Neutralization Assay IC50 (Recombinant Human IL-17): 0.691 nM
B2: DVD2178 (bispecific antibody)
VH: EVQLVQSGAEVKKPGASVKVSCKASGYTFTTYGVSWVRQAPGQGLEWMGEIYPGNYNTYYNEKFRGRVTMTTDTSTSTAYMELRSLRSDDTAVYYCARWRTSYFSDYGYFDYWGQGTTVTVSSASTKGPEVQLVQSGAEVKKPGESVKISCKASGGSFRSYGISWVRQAPGQGLEWMGGITHFFGITDYAQKFQGRVTITADESTTTAYMELSGLTSDDTAVYYCAREPNDFWNGYYDTHDFDSWGQGTTVTVSS
VL: B1 VL with D146N, P161S, T173I, G202A, T209S, S211T, Y214H, P218Q

- N-Terminal VD IL13 Neutralization Assay IC50 (Recombinant Human IL-13): 0.106 nM
- C-Terminal VD IL17 Neutralization Assay IC50 (Recombinant Human IL-17): 0.0053 nM
B3: DVD2170 (bispecific antibody)
VH: EVQLVQSGAEVKKPGASVKVSCKASGYTFTTYGVSWVRQAPGQGLEWMGEIYPGNYNTYYNEKFRGRVTMTTDTSTSTAYMELRSLRSDDTAVYYCARWRTSYFSDYGYFDYWGQGTTVTVSSASTKGPSVFPLAPEVQLVQSGAEVKKPGSSVKVSCKASGYTFTDYEIHWVRQAPGQGLEWMGVNDPESGGTFYNQKFDGRVTLTADESTSTAYMELSSLRSEDTAVYYCTRYSKWDSFDGMDYWGQGTTVTVSS
VL: DVVMTQSPLSLPVTLGQPASISCRSSQSLVHSHGNTYLHWYQQRPGQSPRLLIYTVSNRFSGVPDRFSGSGSGTDFTLKISRVEAEDVGVYYCSQSTHVPYTFGGGTKVEIKRTVAAPDIQMTQSPSSLSASVGDRVTITCRASSGIISYIDWFQQKPGKAPKRLIYATFDLASGVPSRFSGSGSGTDYTLTISSLQPEDFATYYCRQVGSYPETFGQGTKLEIKR

- C-Terminal VD IL13 Neutralization Assay IC50 (Recombinant Human IL-13): 0.309 nM
- N-Terminal VD IL17 Neutralization Assay IC50 (Recombinant Human IL-17): 0.0021 nM
B4: DVD2169 (bispecific antibody)
VH: EVQLVQSGAEVKKPGSSVKVSCKASGYTFTDYEIHWVRQAPGQGLEWMGVNDPESGGTFYNQKFDGRVTLTADESTSTAYMELSSLRSEDTAVYYCTRYSKWDSFDGMDYWGQGTTVTVSSASTKGPEVQLVQSGAEVKKPGASVKVSCKASGYTFTTYGVSWVRQAPGQGLEWMGEIYPGNYNTYYNEKFRGRVTMTTDTSTSTAYMELRSLRSDDTAVYYCARWRTSYFSDYGYFDYWGQGTTVTVSS
VL: DIQMTQSPSSLSASVGDRVTITCRASSGIISYIDWFQQKPGKAPKRLIYATFDLASGVPSRFSGSGSGTDYTLTISSLQPEDFATYYCRQVGSYPETFGQGTKLEIKRTVAAPSVFIFPPDVVMTQSPLSLPVTLGQPASISCRSSQSLVHSHGNTYLHWYQQRPGQSPRLLIYTVSNRFSGVPDRFSGSGSGTDFTLKISRVEAEDVGVYYCSQSTHVPYTFGGGTKVEIKR

- N-Terminal VD IL13 Neutralization Assay IC50 (Recombinant Human IL-13): 0.091 nM
- C-Terminal VD IL17 Neutralization Assay IC50 (Recombinant Human IL-17): 0.0567 nM
B5: DVD2180 (bispecific antibody)
VH: B2 VH
VL: DVVMTQSPLSLPVTLGQPASISCRSSQSLVHSHGNTYLHWYQQRPGQSPRLLIYTVSNRFSGVPDRFSGSGSGTDFTLKISRVEAEDVGVYYCSQSTHVPYTFGGGTKVEIKRTVAAPSVFIFPPEIVLTQSPDFQSVTPKEKVTITCRASQNIGSELHWYQQKPDQSPKLLIKYASHSISGVPSRFSGSGSGTDFTLTINGLEAEDAATYYCHQSDTLPHTFGQGTKVDIKR
